Tests used:
[1] = system: human colorectal adenocarcinoma cancer cell; assay: mouse xenograft model of human colorectal adenocarcinoma; conditions: once-weekly intravenous dosing; Example 13 200 mpk or 150 rising to 250 mpk after 3 week; CFZ-captisol 5 mpk; within 19 days of the first dose
[2] = reverse phase assay of main API peak (integrity of the molecule); type: physicochemical
Description: In order to identify stable formulations of PEG-CFZ, various formulations were made wherein the desired pegylated carfilzomib compound (API) was dissolve in experimental compositions of excipients, and the stability and quantity of the intact, non-degraded API was monitored and measured in the frozen state (−20° C. or below). Formulations of API was also prepared and tested to determine the ability of each exemplary formulation to provide adequate stability in the liquid state to be suitable for clinical and commercial administration. Here, these formulations were stored at least 8 hours at room temperature and 2 days at a temperatures ranging from 2-8° C. All formulations that were tested contained desired API compounds at 1 mg/mL concentrations.
For each formulation, the stability of the API was tested using three observable and/or measurable characteristics, as follows: • 1. Integrity of the molecule, as assessed by the reverse phase assay; • 2. Clarity of the solution, via visual assessment; and • 3. Concentration of the API material in the solution, as assessed by material recovery after centrifugation Results
FIG. 2 illustrates results of similar measurements taken with the same formulations prepared with exemplary pegylated carfilzomib compound no. 39 instead of example 26. API material recovery is similarly shown in red and percent main API peak at To and T3, as measured by the same reverse phase assay, after storage at 25° C. for 3 days, is shown. Solutions for temperature and time storage conditions were generally prepared as follows—CFZ API was dissolved in formulation buffer by stirring at room temperature for a period of 5 minutes until complete dissolution. Samples were then sterile filtered using 0.2 micron PES filters under aseptic conditions into 3 cc vials, using a 1 ml fill. […]
The percent recovery of the exemplary pegylated carfilomib compounds were measured as a function of reverse phase assays for the peak(s) representing the active molecule/compound. The percent was determined based on the area under the curve, as described below. The reverse phase assays were conducted as follows—CFZ samples were analyzed by reverse phase using a Phenomenex Gemini C18, 50×4.6 mm, 3 micron particle size column with a 47 minute HPLC method. […] Main peak percentage was determined by taking Area Under the Curve integration. […] The concentration of each unknown sample was calculated using the equation of the trend-line generated from this calibration curve by plugging in the total integrated area.
For each exemplary formulation, the stability of the API was tested or measured by six different criteria or methods, as follows: • 1. Integrity of the molecule, as assessed by the reverse phase assay; • 2. […]

[3] = in humans; cited from earlier work

With “4-((4S,7S,10S,13S)-10-Benzyl-7-isobutyl-15-methyl-13-((R)-2-methyloxirane-2-carbonyl)-2,5,8,11-tetraoxo-4-phenethyl-3,6,9,12-tetraazahexadecyl)-4-(3-((1-(PEG20K-4-Arm)-1H-1,2,3-triazol-4-yl)methoxy)-4-(pivaloyloxy)benzyl)morpholin-4-ium Formate [Example 13]” the “tumor growth compared to vehicle control” value [1] was “significant attenuation of tumor growth”.
In the case of “4-((4S,7S,10S,13S)-10-Benzyl-7-isobutyl-15-methyl-13-((R)-2-methyloxirane-2-carbonyl)-2,5,8,11-tetraoxo-4-phenethyl-3,6,9,12-tetraazahexadecyl)-4-(4-(isobutyryloxy)-3-((PEG5K-imino)methyl)benzyl)morpholin-4-ium Methanesulfonate [Example 26]”, the “main API peak loss (Table 6)” value ([2]; 5kPEG-CFZ compound example 26, 25° C. (8 h), 4° C. (in 1 week) and −70° C. (in 2 weeks)) is reported as “minimal main API peak loss”, the “main API peak loss, 4° C. Loss per 1 week” value ([2]; A5Su formulation, API at 20 mg/mL, storage at 4° C.) is reported as 0.0 and the “main API peak loss, 25° C. loss per 8 hr” value ([2]; A5Su formulation, API at 20 mg/mL, storage at 25° C.) is reported as 0.0. The “main API peak loss, −70° C. loss per 2 weeks” value ([2]; A5Su formulation, API at 20 mg/mL, storage at −70° C.) was 0.0.
For `CC(C)C[C@H](NC(=O)[C@H](CCc1ccccc1)NC(=O)CN1CCOCC1)C(=O)N[C@@H](Cc1ccccc1)C(=O)N[C@@H](CC(C)C)C(=O)[C@@]1(C)CO1` [Carfilzomib], the half-life in-vivo [3] is listed as ≤ 1 h.

Source: US11241502B2, “Stable compositions of pegylated carfilzomib compounds” (AMGEN INC., priority 2017, dated 2022)
